Patent publication US20090280138A1 (OXFORD BIOMEDICA UK, published 2009)

Target: T1, MHC class I allele B*0702 (bound via biotin to streptavidin-coated plate)
T1 construct: iTopia MHC class I monomer on the plate; placeholder peptide and b2M removed, then reconstituted with test peptide and fresh b2M; also called B7; HLA B7
Assay: iTopia peptide binding assay
Experimental: (§1) The 9 mers were tested for Peptide Binding, Off Rate and Affinity using iTopia Epitope Discovery System in accordance with the manufacturer's instructions. Briefly, 96 well microtitre plates coated with MHC molecules representing different MHC alleles are used to identify candidate peptides. […] Determinations are performed in duplicate using an ELISA plate reader and included allele specific positive controls.
(§2) i) Peptide Binding—This assay measures the ability of individual peptides to bind to the MHC molecules under standardized optimal binding conditions. The assay is performed for all the test peptides across the selected MHC alleles. The test peptides identified as “binders” are characterized further in terms of affinity and dissociation experiments.

In order of rising “% of positive control peptide binding” value:
1. LCECSEAAR (also called Peptide No 33) [5T4 9 mer peptide 33 LCECSEAAR]  0%
2. QCPALCECS (also called Peptide No 31) [5T4 9 mer peptide 31 QCPALCECS]  0%
3. SEAARTVKC (also called Peptide No 35) [5T4 9 mer peptide 35 SEAARTVKC]  0%
4. ECSEAARTV (also called Peptide No 34) [5T4 9 mer peptide 34 ECSEAARTV]  0%
5. TEVPTDLPA (also called Peptide No 42) [5T4 9 mer peptide 42 TEVPTDLPA]  0%
6. PALCECSEA (also called Peptide No 32) [5T4 9 mer peptide 32 PALCECSEA]  0%
7. AFEHLPSLR (also called Peptide No 69) [5T4 9 mer peptide 69 AFEHLPSLR]  0%
8. PDQCPALCE (also called Peptide No 30) [5T4 9 mer peptide 30 PDQCPALCE]  1%
9. VKCVNRNLT (also called Peptide No 38) [5T4 9 mer peptide 38 VKCVNRNLT]  2%
10. TDLPAYVRN (also called Peptide No 44) [5T4 9 mer peptide 44 TDLPAYVRN]  2%
11. RTVKCVNRN (also called Peptide No 37) [5T4 9 mer peptide 37 RTVKCVNRN]  3%
12. AALNLSGSR (also called Peptide No 61) [5T4 9 mer peptide 61 AALNLSGSR]  3%
13. VRNLFLTGN (also called Peptide No 47) [5T4 9 mer peptide 47 VRNLFLTGN]  3%
14. CSRGPAAGD (also called Peptide No 3) [5T4 9 mer peptide 3 CSRGPAAGD]  3%
15. QPPLPDQCP (also called Peptide No 28) [5T4 9 mer peptide 28 QPPLPDQCP]  3%
16. PAAGDGRLR (also called Peptide No 5) [5T4 9 mer peptide 5 PAAGDGRLR]  5%
17. NRNLTEVPT (also called Peptide No 40) [5T4 9 mer peptide 40 NRNLTEVPT]  5%
18. FLTGNQLAV (also called Peptide No 49) [5T4 9 mer peptide 49 FLTGNQLAV]  6%
19. AGAFEHLPS (also called Peptide No 68) [5T4 9 mer peptide 68 AGAFEHLPS]  7%
20. PAGAFARRP (also called Peptide No 54) [5T4 9 mer peptide 54 PAGAFARRP]  7%
21. LNLSGSRLD (also called Peptide No 62) [5T4 9 mer peptide 62 LNLSGSRLD]  7%
22. RRPPLAELA (also called Peptide No 57) [5T4 9 mer peptide 57 RRPPLAELA]  9%
23. VPTDLPAYV (also called Peptide No 43) [5T4 9 mer peptide 43 VPTDLPAYV]  11%
24. DEVRAGAFE (also called Peptide No 66) [5T4 9 mer peptide 66 DEVRAGAFE]  12%
25. LAELAALNL (also called Peptide No 59) [5T4 9 mer peptide 59 LAELAALNL]  16%
26. RLDEVRAGA (also called Peptide No 65) [5T4 9 mer peptide 65 RLDEVRAGA]  32%
27. PPLAELAAL (also called Peptide No 58) [5T4 9 mer peptide 58 PPLAELAAL]  33%
28. LPAYVRNLF (also called Peptide No 45) [5T4 9 mer peptide 45 LPAYVRNLF]  90%
29. GAFARRPPL (also called Peptide No 55) [5T4 9 mer peptide 55 GAFARRPPL]  91%

Target: T2, MHC class I allele A*0101 (bound via biotin to streptavidin-coated plate)
T2 construct: iTopia MHC class I monomer on the plate; placeholder peptide and b2M removed, then reconstituted with test peptide and fresh b2M; also called A1; HLA A1
Assay: iTopia peptide binding assay
Experimental: as §1, §2

In order of rising “% of positive control peptide binding” value:
1. GAFARRPPL (also called Peptide No 55) [5T4 9 mer peptide 55 GAFARRPPL]  0%
2. VRNLFLTGN (also called Peptide No 47) [5T4 9 mer peptide 47 VRNLFLTGN]  0%
3. CSRGPAAGD (also called Peptide No 3) [5T4 9 mer peptide 3 CSRGPAAGD]  0%
4. NRNLTEVPT (also called Peptide No 40) [5T4 9 mer peptide 40 NRNLTEVPT]  1%
5. AFEHLPSLR (also called Peptide No 69) [5T4 9 mer peptide 69 AFEHLPSLR]  1%
6. ECSEAARTV (also called Peptide No 34) [5T4 9 mer peptide 34 ECSEAARTV]  2%
7. PAGAFARRP (also called Peptide No 54) [5T4 9 mer peptide 54 PAGAFARRP]  2%
8. LNLSGSRLD (also called Peptide No 62) [5T4 9 mer peptide 62 LNLSGSRLD]  2%
9. RRPPLAELA (also called Peptide No 57) [5T4 9 mer peptide 57 RRPPLAELA]  2%
10. LCECSEAAR (also called Peptide No 33) [5T4 9 mer peptide 33 LCECSEAAR]  3%
11. QCPALCECS (also called Peptide No 31) [5T4 9 mer peptide 31 QCPALCECS]  3%
12. TEVPTDLPA (also called Peptide No 42) [5T4 9 mer peptide 42 TEVPTDLPA]  3%
13. AALNLSGSR (also called Peptide No 61) [5T4 9 mer peptide 61 AALNLSGSR]  3%
14. FLTGNQLAV (also called Peptide No 49) [5T4 9 mer peptide 49 FLTGNQLAV]  4%
15. RLDEVRAGA (also called Peptide No 65) [5T4 9 mer peptide 65 RLDEVRAGA]  4%
16. PAAGDGRLR (also called Peptide No 5) [5T4 9 mer peptide 5 PAAGDGRLR]  4%
17. PALCECSEA (also called Peptide No 32) [5T4 9 mer peptide 32 PALCECSEA]  4%
18. SEAARTVKC (also called Peptide No 35) [5T4 9 mer peptide 35 SEAARTVKC]  5%
19. PDQCPALCE (also called Peptide No 30) [5T4 9 mer peptide 30 PDQCPALCE]  5%
20. AGAFEHLPS (also called Peptide No 68) [5T4 9 mer peptide 68 AGAFEHLPS]  6%
21. PPLAELAAL (also called Peptide No 58) [5T4 9 mer peptide 58 PPLAELAAL]  6%
22. VKCVNRNLT (also called Peptide No 38) [5T4 9 mer peptide 38 VKCVNRNLT]  6%
23. DEVRAGAFE (also called Peptide No 66) [5T4 9 mer peptide 66 DEVRAGAFE]  6%
24. QPPLPDQCP (also called Peptide No 28) [5T4 9 mer peptide 28 QPPLPDQCP]  6%
25. RTVKCVNRN (also called Peptide No 37) [5T4 9 mer peptide 37 RTVKCVNRN]  7%
26. LPAYVRNLF (also called Peptide No 45) [5T4 9 mer peptide 45 LPAYVRNLF]  7%
27. TDLPAYVRN (also called Peptide No 44) [5T4 9 mer peptide 44 TDLPAYVRN]  7%
28. LAELAALNL (also called Peptide No 59) [5T4 9 mer peptide 59 LAELAALNL]  15%
29. VPTDLPAYV (also called Peptide No 43) [5T4 9 mer peptide 43 VPTDLPAYV]  33%

Target: T3, MHC class I allele A*0201 (bound via biotin to streptavidin-coated plate)
T3 construct: iTopia MHC class I monomer on the plate; placeholder peptide and b2M removed, then reconstituted with test peptide and fresh b2M; also called A2; HLA A2
Assay: iTopia peptide binding assay
Experimental: as §1, §2

In order of rising “% of positive control peptide binding” value:
1. SEAARTVKC (also called Peptide No 35) [5T4 9 mer peptide 35 SEAARTVKC]  1%
2. QCPALCECS (also called Peptide No 31) [5T4 9 mer peptide 31 QCPALCECS]  2%
3. VKCVNRNLT (also called Peptide No 38) [5T4 9 mer peptide 38 VKCVNRNLT]  3%
4. TDLPAYVRN (also called Peptide No 44) [5T4 9 mer peptide 44 TDLPAYVRN]  3%
5. CSRGPAAGD (also called Peptide No 3) [5T4 9 mer peptide 3 CSRGPAAGD]  3%
6. PDQCPALCE (also called Peptide No 30) [5T4 9 mer peptide 30 PDQCPALCE]  3%
7. ECSEAARTV (also called Peptide No 34) [5T4 9 mer peptide 34 ECSEAARTV]  4%
8. PAGAFARRP (also called Peptide No 54) [5T4 9 mer peptide 54 PAGAFARRP]  4%
9. PAAGDGRLR (also called Peptide No 5) [5T4 9 mer peptide 5 PAAGDGRLR]  5%
10. VRNLFLTGN (also called Peptide No 47) [5T4 9 mer peptide 47 VRNLFLTGN]  5%
11. QPPLPDQCP (also called Peptide No 28) [5T4 9 mer peptide 28 QPPLPDQCP]  5%
12. LCECSEAAR (also called Peptide No 33) [5T4 9 mer peptide 33 LCECSEAAR]  6%
13. AALNLSGSR (also called Peptide No 61) [5T4 9 mer peptide 61 AALNLSGSR]  6%
14. NRNLTEVPT (also called Peptide No 40) [5T4 9 mer peptide 40 NRNLTEVPT]  6%
15. TEVPTDLPA (also called Peptide No 42) [5T4 9 mer peptide 42 TEVPTDLPA]  7%
16. LNLSGSRLD (also called Peptide No 62) [5T4 9 mer peptide 62 LNLSGSRLD]  7%
17. DEVRAGAFE (also called Peptide No 66) [5T4 9 mer peptide 66 DEVRAGAFE]  9%
18. AGAFEHLPS (also called Peptide No 68) [5T4 9 mer peptide 68 AGAFEHLPS]  10%
19. AFEHLPSLR (also called Peptide No 69) [5T4 9 mer peptide 69 AFEHLPSLR]  11%
20. RRPPLAELA (also called Peptide No 57) [5T4 9 mer peptide 57 RRPPLAELA]  11%
21. RTVKCVNRN (also called Peptide No 37) [5T4 9 mer peptide 37 RTVKCVNRN]  12%
22. LPAYVRNLF (also called Peptide No 45) [5T4 9 mer peptide 45 LPAYVRNLF]  14%
23. PPLAELAAL (also called Peptide No 58) [5T4 9 mer peptide 58 PPLAELAAL]  19%
24. PALCECSEA (also called Peptide No 32) [5T4 9 mer peptide 32 PALCECSEA]  19%
25. VPTDLPAYV (also called Peptide No 43) [5T4 9 mer peptide 43 VPTDLPAYV]  29%
26. GAFARRPPL (also called Peptide No 55) [5T4 9 mer peptide 55 GAFARRPPL]  41%
27. LAELAALNL (also called Peptide No 59) [5T4 9 mer peptide 59 LAELAALNL]  63%
28. RLDEVRAGA (also called Peptide No 65) [5T4 9 mer peptide 65 RLDEVRAGA]  69%
29. FLTGNQLAV (also called Peptide No 49) [5T4 9 mer peptide 49 FLTGNQLAV]  90%

Target: T4, MHC class I allele A*0301 (bound via biotin to streptavidin-coated plate)
T4 construct: iTopia MHC class I monomer on the plate; placeholder peptide and b2M removed, then reconstituted with test peptide and fresh b2M; also called A3; HLA A3
Assay: iTopia peptide binding assay
Experimental: as §1, §2

In order of rising “% of positive control peptide binding” value:
1. LCECSEAAR (also called Peptide No 33) [5T4 9 mer peptide 33 LCECSEAAR]  0%
2. VPTDLPAYV (also called Peptide No 43) [5T4 9 mer peptide 43 VPTDLPAYV]  0%
3. QCPALCECS (also called Peptide No 31) [5T4 9 mer peptide 31 QCPALCECS]  0%
4. SEAARTVKC (also called Peptide No 35) [5T4 9 mer peptide 35 SEAARTVKC]  0%
5. VKCVNRNLT (also called Peptide No 38) [5T4 9 mer peptide 38 VKCVNRNLT]  0%
6. ECSEAARTV (also called Peptide No 34) [5T4 9 mer peptide 34 ECSEAARTV]  0%
7. TEVPTDLPA (also called Peptide No 42) [5T4 9 mer peptide 42 TEVPTDLPA]  0%
8. PALCECSEA (also called Peptide No 32) [5T4 9 mer peptide 32 PALCECSEA]  0%
9. VRNLFLTGN (also called Peptide No 47) [5T4 9 mer peptide 47 VRNLFLTGN]  0%
10. NRNLTEVPT (also called Peptide No 40) [5T4 9 mer peptide 40 NRNLTEVPT]  0%
11. PDQCPALCE (also called Peptide No 30) [5T4 9 mer peptide 30 PDQCPALCE]  0%
12. TDLPAYVRN (also called Peptide No 44) [5T4 9 mer peptide 44 TDLPAYVRN]  1%
13. QPPLPDQCP (also called Peptide No 28) [5T4 9 mer peptide 28 QPPLPDQCP]  1%
14. LPAYVRNLF (also called Peptide No 45) [5T4 9 mer peptide 45 LPAYVRNLF]  2%
15. LNLSGSRLD (also called Peptide No 62) [5T4 9 mer peptide 62 LNLSGSRLD]  2%
16. RRPPLAELA (also called Peptide No 57) [5T4 9 mer peptide 57 RRPPLAELA]  2%
17. AGAFEHLPS (also called Peptide No 68) [5T4 9 mer peptide 68 AGAFEHLPS]  3%
18. FLTGNQLAV (also called Peptide No 49) [5T4 9 mer peptide 49 FLTGNQLAV]  3%
19. PAGAFARRP (also called Peptide No 54) [5T4 9 mer peptide 54 PAGAFARRP]  3%
20. GAFARRPPL (also called Peptide No 55) [5T4 9 mer peptide 55 GAFARRPPL]  3%
21. LAELAALNL (also called Peptide No 59) [5T4 9 mer peptide 59 LAELAALNL]  3%
22. PPLAELAAL (also called Peptide No 58) [5T4 9 mer peptide 58 PPLAELAAL]  4%
23. PAAGDGRLR (also called Peptide No 5) [5T4 9 mer peptide 5 PAAGDGRLR]  4%
24. CSRGPAAGD (also called Peptide No 3) [5T4 9 mer peptide 3 CSRGPAAGD]  5%
25. DEVRAGAFE (also called Peptide No 66) [5T4 9 mer peptide 66 DEVRAGAFE]  7%
26. AFEHLPSLR (also called Peptide No 69) [5T4 9 mer peptide 69 AFEHLPSLR]  11%
27. RTVKCVNRN (also called Peptide No 37) [5T4 9 mer peptide 37 RTVKCVNRN]  12%
28. AALNLSGSR (also called Peptide No 61) [5T4 9 mer peptide 61 AALNLSGSR]  13%
29. RLDEVRAGA (also called Peptide No 65) [5T4 9 mer peptide 65 RLDEVRAGA]  17%
